The values below come from patent publication US20260274955A1 (JANUX THERAPEUTICS, published 2026).

No end group written: not given here.

The target in the first test is T1, anti-CD28 Fab (SEQ ID NOs: 202, 203).
T1 construct: biotinylated when captured in the phage ELISAs
The test is described as follows: binding ELISA, peptide captured, anti-CD28 Fab titrated. Background: In an ELISA, binding on a coated surface is turned into a signal by an enzyme label.
As for TCSAGAHYPWPICL (cysteine pairing not given here; also: biotinylated, site not given here) [Peptide-102], the half-maximal effective concentration (EC50) was 10.6 nM. In other words, the double-digit nanomolar range.

Consider LCAAGATYPWPLCL (cysteine pairing not given here; also: biotinylated, site not given here) [Peptide-96], for which the half-maximal effective concentration (EC50) turned out to be 5.6 nM. Still for that read-out and setting: in the case of LCAAGATYPWPTCL (cysteine pairing not given here; also: biotinylated, site not given here) [Peptide-99] it was 25.8 nM. The same measure, in the same setting: in the case of TCAAGAAWPWPQCL (cysteine pairing not given here; also: biotinylated, site not given here) [Peptide-92] it was 2.6 nM.

On to TCSAGASYPWPLCL (cysteine pairing not given here; also: biotinylated, site not given here) [Peptide-91], for which the EC50 came out at 5.3 nM. The molecule TCSAGAAYPWPLCL (cysteine pairing not given here; also: biotinylated, site not given here) [Peptide-97] yielded a concentration for a half-maximal effect (EC50) of 4.4 nM. On to TCSAGAAYSWPACF (cysteine pairing not given here; also: biotinylated, site not given here) [Peptide-98], for which the response was half-maximal at 24.3 nM (EC50). Still for that read-out and setting: under TCAAGAAWGWPLCF (cysteine pairing not given here; also: biotinylated, site not given here) [Peptide-95] stands 5.6 nM; under SCSAGAHYPWPQCF (cysteine pairing not given here; also: biotinylated, site not given here) [Peptide-100], 19 nM.

LCAAGASWPWPVCL (cysteine pairing not given here; also: biotinylated, site not given here) [Peptide-90]: the concentration for a half-maximal effect (EC50) was determined as 13.1 nM. Same read-out and setting: in the case of TCSAGATYEWPRCL (cysteine pairing not given here; also: biotinylated, site not given here) [Peptide-101] it was 12.8 nM. Same read-out and setting: under TCSAGATYTWPKCF (cysteine pairing not given here; also: biotinylated, site not given here) [Peptide-93] stands 15.7 nM. The same measure, in the same setting: under TCAAGATWSWPACF (cysteine pairing not given here; also: biotinylated, site not given here) [Peptide-94] stands 4.5 nM.

Turning to TCSAGATWPWPICL (cysteine pairing not given here; also: biotinylated, site not given here) [Peptide-89], the 50% effective concentration (EC50) was determined as 2.1 nM.

The next test has as its target T2, Ab-1.
T2 construct: also called anti-CD28 scFv harbored in Ab-1
The test can be described thus: BLI (Octet), 200 nM peptide, 100 nM Ab-1.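 Further: association and dissociation phases tracked in real time, with kinetics fitted to a 1:1 interaction model.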 On the technique in general: In BLI a coated tip is dipped into the sample, and binding shifts an interference pattern.
VDWCPRDLWVHCFA (cysteine pairing not given here; also: biotinylated, site not given here) [Peptide-19] displayed an Octet signal of 0.919 and a t1/2 of 2.9 min.

For the next test, the target named is T2, Ab-1. The test is described as follows: competition ELISA, peptide titrated vs 1 nM Ab-1 binding plate-bound CD28.
In the case of VDWCPRDLWVHCFA (cysteine pairing not given here; also: biotinylated, site not given here) [Peptide-19], the half-maximal inhibitory concentration (IC50) was 4420 nM. In other words, the single-digit micromolar range.

The next test addresses T2, Ab-1. The test is described as follows: binding ELISA, peptide captured, Ab-1 titrated.
As for VDWCPRDLWVHCFA (cysteine pairing not given here; also: biotinylated, site not given here) [Peptide-19], the EC50 stood at 32.5 nM.

As a reminder, the EC50 is the midpoint of the concentration-response curve. High values mean a need for much substance, low ones an effect from little substance. By IC50 is commonly meant the concentration at which inhibition is half-maximal. A higher IC50 goes with a need for much substance.
